Test results published in patent US20130078247A1 (Boehringer Ingelheim, published 2013).
Changes are numbered by the printed parent chain. Read-outs that look alike come from different tables or passages of the source.

Experiments:
[1] = target: T1, recombinant human Jagged-1 (Alexis) (human, UniProt P78504 34-1067, limits assumed); experiment: rhDLL1/rhJAG1 binding ELISA
T1 construct: also called hJagged-1; hJAG1

[2] = target: T2, recombinant human DLL1 (Alexis) (human, UniProt O00548 18-545, limits assumed); experiment: rhDLL1/rhJAG1 binding ELISA
T2 construct: also called hDLL1; rhDLL1
T2 sequence (looked up): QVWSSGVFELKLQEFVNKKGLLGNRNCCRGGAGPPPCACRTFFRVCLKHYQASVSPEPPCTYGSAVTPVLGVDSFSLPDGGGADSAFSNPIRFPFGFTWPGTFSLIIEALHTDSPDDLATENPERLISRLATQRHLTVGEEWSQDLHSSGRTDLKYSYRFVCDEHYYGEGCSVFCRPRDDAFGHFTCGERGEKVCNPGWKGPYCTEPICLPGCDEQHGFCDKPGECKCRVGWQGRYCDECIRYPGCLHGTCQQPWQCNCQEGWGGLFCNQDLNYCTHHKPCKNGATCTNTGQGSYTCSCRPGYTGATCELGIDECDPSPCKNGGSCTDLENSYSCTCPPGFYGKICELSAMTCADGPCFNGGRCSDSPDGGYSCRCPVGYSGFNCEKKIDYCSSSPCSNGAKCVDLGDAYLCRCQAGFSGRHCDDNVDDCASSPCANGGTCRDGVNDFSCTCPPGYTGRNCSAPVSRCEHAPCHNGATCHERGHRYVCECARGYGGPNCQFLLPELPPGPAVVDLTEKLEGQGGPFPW

[3] = target: T3, recombinant human DLL4 extracellular domain, C-terminally His-tagged (R&D Systems) (human, UniProt Q9NR61 25-522, biotinylated in the competition assays (sites not given)); experiment: binding ELISA on coated rhDLL4
T3 construct: also called rhDLL4; hDLL4; not shown: C-terminal His tag

[4] = target: T4, recombinant mouse DLL4 extracellular domain, C-terminally His-tagged (R&D Systems) (mouse, UniProt Q9JI71 27-525); experiment: binding ELISA on coated rmDLL4
T4 construct: range 1-525; also called rmDLL4; mDLL4; not shown: C-terminal His tag
Procedure: In order to determine cross-reactivity to mouse DII4 a binding ELISA is performed. […] Wells are blocked with a casein solution (1% in PBS). VHHs are applied as dilution series and binding is detected using a mouse anti-myc (Roche) and an anti-mouse-AP conjugate (Sigma, St Louis, Mo., USA) (FIG. 7).

[5] = target: T5, mouse Ang2 (mouse, UniProt O35608 19-496, limits assumed); experiment: competition ELISA mAng2/mTie2
T5 construct: also called mAng2
T5 sequence (looked up): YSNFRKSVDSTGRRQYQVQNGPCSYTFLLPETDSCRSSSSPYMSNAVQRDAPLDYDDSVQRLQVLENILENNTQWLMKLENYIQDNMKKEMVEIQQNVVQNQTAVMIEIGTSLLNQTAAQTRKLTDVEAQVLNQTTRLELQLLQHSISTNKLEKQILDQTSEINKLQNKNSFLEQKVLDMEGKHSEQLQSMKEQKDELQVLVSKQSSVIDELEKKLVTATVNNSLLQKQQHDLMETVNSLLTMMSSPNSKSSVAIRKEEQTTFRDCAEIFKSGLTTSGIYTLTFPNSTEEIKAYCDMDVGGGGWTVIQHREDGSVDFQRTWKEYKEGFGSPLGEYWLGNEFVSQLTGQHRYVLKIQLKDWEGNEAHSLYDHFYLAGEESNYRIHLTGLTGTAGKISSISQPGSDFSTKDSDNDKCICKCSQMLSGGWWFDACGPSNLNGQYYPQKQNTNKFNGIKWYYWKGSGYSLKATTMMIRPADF
Procedure: (§1) This assay is also performed after incubation of the VHH with 0.5 μM human serum albumin.

[6] = target: T6, human Ang2 (human, UniProt O15123 19-496, limits assumed); experiment: competition ELISA hAng2/hTie2-Fc
T6 construct: also called hAng2; human Angiopoietin2
T6 sequence (looked up): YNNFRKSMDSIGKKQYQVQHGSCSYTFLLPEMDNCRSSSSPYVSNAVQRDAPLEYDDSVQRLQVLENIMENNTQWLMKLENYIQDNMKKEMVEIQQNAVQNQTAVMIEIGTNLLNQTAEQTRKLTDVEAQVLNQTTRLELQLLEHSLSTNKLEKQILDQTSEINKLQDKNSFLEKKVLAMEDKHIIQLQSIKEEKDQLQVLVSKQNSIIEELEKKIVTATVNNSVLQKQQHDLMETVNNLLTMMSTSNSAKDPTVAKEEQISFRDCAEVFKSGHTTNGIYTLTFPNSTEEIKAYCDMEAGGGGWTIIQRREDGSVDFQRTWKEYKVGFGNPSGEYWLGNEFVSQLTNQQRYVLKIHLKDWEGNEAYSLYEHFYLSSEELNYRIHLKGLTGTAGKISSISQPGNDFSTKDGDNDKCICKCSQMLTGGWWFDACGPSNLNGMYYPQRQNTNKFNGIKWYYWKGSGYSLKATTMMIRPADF
Procedure: as §1

[7] = target: T6, human Ang2; experiment: competition ELISA hAng2/hTie2-Fc, with 0.5 uM HSA [continued]
Procedure: as §1

[8] = target: T6, human Ang2; experiment: competition ELISA: hAng2 binding to hTie2
[9] = target: T5, mouse Ang2; experiment: competition ELISA: mAng2 binding to mTie2
[10] = target: T7, cynomolgus Ang2 (cynomolgus); experiment: competition ELISA: cAng2 binding to cTie2
T7 construct: also called cAng2; cyno Ang2

[11] = target: T8, cynomolgus DLL4, full length, overexpressed on cells (cynomolgus, UniProt Q9NR61 27-685 (human entry)); experiment: FACS titration on HEK293-cDLL4 cells
T8 construct: also called CHO-cDLL4; cDLL4
T8 chain: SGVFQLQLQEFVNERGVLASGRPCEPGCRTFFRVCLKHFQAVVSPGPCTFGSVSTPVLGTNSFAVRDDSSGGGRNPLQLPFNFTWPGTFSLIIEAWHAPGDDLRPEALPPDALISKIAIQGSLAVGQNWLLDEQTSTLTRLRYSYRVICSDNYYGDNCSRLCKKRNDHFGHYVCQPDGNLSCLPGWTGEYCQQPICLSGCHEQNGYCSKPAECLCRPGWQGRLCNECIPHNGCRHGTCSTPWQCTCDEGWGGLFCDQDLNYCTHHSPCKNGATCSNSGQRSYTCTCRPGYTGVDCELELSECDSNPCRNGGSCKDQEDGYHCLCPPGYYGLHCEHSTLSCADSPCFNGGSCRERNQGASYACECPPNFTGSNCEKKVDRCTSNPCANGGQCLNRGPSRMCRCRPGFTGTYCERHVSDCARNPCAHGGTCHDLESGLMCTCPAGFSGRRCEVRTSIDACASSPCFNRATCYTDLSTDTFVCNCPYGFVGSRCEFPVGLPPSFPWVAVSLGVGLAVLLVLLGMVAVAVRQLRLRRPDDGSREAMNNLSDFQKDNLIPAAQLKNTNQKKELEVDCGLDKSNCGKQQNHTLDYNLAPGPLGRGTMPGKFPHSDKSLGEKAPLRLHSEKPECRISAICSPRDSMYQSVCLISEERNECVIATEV
Procedure: (§2) In order to determine the cynomologus cross-reactivity of the VHHs, a FACS binding experiment is performed. Cynomolgus DII4 expressing HEK293 cells (transient or stable transfection) are used for a titration binding experiment of the VHHs. After a 30 minutes incubation on ice, all samples are washed and detection is performed by applying anti-c-myc-Alexa647 (Santa Cruz Biotechnology, Santa Cruz, Calif., USA). Human and mouse DII4 overexpressing HEK293 cells are taken as reference. The mean MCF value is determined on the FACS Array and used for calculation of the EC₅₀ value (see FIG. 9).

[12] = target: T9, human DLL4, full length, overexpressed on CHO or HEK293 cells (human, UniProt Q9NR61 27-685); experiment: FACS titration on HEK293-hDLL4 cells
T9 construct: also called CHO-hDLL4; CHO-hDII4
Procedure: as §2

[13] = target: T5, mouse Ang2; experiment: competition ELISA: mAng2 binding to mTie2; remark: listed apart in the source
Procedure: as §1

[14] = target: T5, mouse Ang2; experiment: competition ELISA: mAng2 binding to mTie2; remark: listed apart in the source
Procedure: as §1

[15] = target: T7, cynomolgus Ang2; experiment: competition ELISA: cAng2 binding to cTie2; remark: listed apart in the source
Procedure: as §1

[16] = target: T7, cynomolgus Ang2; experiment: competition ELISA: cAng2 binding to cTie2; remark: listed apart in the source
Procedure: as §1

[17] = target: T6, human Ang2; experiment: competition ELISA: hAng2 binding to hTie2; remark: listed apart in the source
[18] = target: T5, mouse Ang2; experiment: competition ELISA: mAng2 binding to mTie2; remark: listed apart in the source
[19] = target: T7, cynomolgus Ang2; experiment: competition ELISA: cAng2 binding to cTie2; remark: listed apart in the source
[20] = target: T10, mouse DLL4, full length, overexpressed on CHO or HEK293 cells (mouse, UniProt Q9JI71 27-686); experiment: FMAT competition: labelled hNotch1-Fc on CHO-mDLL4 cells
T10 construct: whole, on cells; also called CHO-mDLL4; CHO-mDII4
Excerpt: (§3) All calculations are based on the FL1_total signal which comprises the average of the fluorescence per well times the number of counts per well.

[21] = target: T9, human DLL4, full length, overexpressed …; experiment: FMAT competition: labelled hNotch1-Fc on CHO-hDLL4 cells
Excerpt: as §3

T4 sequence (Q9JI71 27-525 limits assumed): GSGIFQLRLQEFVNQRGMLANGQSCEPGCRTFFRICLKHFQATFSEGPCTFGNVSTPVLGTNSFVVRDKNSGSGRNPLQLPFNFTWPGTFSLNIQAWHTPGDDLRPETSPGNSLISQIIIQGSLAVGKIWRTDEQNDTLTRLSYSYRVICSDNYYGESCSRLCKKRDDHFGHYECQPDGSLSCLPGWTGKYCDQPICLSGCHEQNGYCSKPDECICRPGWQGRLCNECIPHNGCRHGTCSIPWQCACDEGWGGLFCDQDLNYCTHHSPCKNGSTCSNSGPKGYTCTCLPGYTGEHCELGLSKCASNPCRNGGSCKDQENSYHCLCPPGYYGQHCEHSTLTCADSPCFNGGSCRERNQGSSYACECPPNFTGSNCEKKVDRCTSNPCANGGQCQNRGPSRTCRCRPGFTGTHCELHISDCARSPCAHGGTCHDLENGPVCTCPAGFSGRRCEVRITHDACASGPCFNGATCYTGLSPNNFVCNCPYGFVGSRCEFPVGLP
T3 sequence (Q9NR61 25-522): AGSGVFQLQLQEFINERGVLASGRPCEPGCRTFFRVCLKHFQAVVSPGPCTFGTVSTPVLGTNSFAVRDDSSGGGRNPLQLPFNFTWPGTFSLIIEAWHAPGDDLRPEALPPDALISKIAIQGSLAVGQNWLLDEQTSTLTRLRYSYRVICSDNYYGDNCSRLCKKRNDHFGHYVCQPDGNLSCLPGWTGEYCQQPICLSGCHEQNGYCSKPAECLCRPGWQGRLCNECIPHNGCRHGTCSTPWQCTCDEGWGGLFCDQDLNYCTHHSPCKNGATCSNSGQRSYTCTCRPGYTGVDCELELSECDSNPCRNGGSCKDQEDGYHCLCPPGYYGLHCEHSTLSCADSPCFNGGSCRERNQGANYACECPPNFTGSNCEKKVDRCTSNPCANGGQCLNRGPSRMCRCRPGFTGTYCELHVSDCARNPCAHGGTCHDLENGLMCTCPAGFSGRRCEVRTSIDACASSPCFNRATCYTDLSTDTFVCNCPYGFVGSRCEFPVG

B1: DLLBII133A09 (VHH)
VHH: EVQLVESGGGLVQPGGSLRLSCAASGFTFGSYDMSWVRRSPGKGPEWVSAINSGGGSTYYADYVKGRFTISRDNAKNTLYLQMNSLKPEDTAVYYCAADRYIWARQGEYWGAYAYDYWGQGTQVTVSS
notes: not shown: C-terminal c-myc and His6 tags
binding result [1]: no binding | binding result [2]: no binding | EC50 (read off the curve) [3]: ~0.7 nM | EC50 (read off the curve) [4]: ~0.9 nM

B2: 00050 (VHH)
VHH: EVQLVESGGGLVQPGGSLRLSCAASGFTFDDYALGWFRQAPGKEREGVSCIRCSDGSTYYADSVKGRFTISSDNSKNTVYLQMNSLRPEDTAVYYCAASIVPRSKLEPYEYDAWGQGTLVTVSS
IC50 (read off the curve) [5]: ~9 nM | IC50 (read off the curve) [6]: ~6 nM | IC50 (read off the curve) [7]: ~6 nM

B3: 00921 (VHH)
VHH: B2 VHH with D55G
IC50 (read off the curve) [8]: ~20 nM | IC50 (read off the curve) [9]: ~30 nM | IC50 (read off the curve) [10]: ~40 nM

B4: DLLBII56C04 (VHH)
VHH: EVQLVESGGGLVQPGGSLRLSCTASGFTFDVYAIGWFRQAPGKEPEGISCISSSGSITYYADSVKGRFTTSRDSAKNTVYLQMNSLKPEDTAVYYCATPGIAACRGIHYWGQGTQVTVSS
notes: as for B1
binding result [11]: binds | EC50 (read off the curve) [12]: ~5 nM

B5: 00042 (VHH)
VHH: EVQLVESGGGLVQPGGSLRLSCAASGFTLDDYAIGWFRQAPGKEREGVSSIRDNDGSTYYADSVKGRFTISSDNSKNTVYLQMNSLRPEDTAVYYCAAVPAGRLRFGEQWYPLYEYDAWGQGTLVTVSS
IC50 (read off the curve) [13]: ~1 nM | IC50 (read off the curve) [14]: ~2 nM | IC50 (read off the curve) [15]: ~0.5 nM | IC50 (read off the curve) [16]: ~0.8 nM

B6: 00938 (VHH)
VHH: B5 VHH with A24V, F27I, S50A, D53S, N54S, D55G, F106Y, L113I
IC50 (read off the curve) [17]: ~0.04 nM | IC50 (read off the curve) [18]: ~0.06 nM | IC50 (read off the curve) [19]: ~0.1 nM

B7: 106H01 (VHH)
VHH: EVQLVESGGGLVQAGGSLRLSCAASGSTFSNYAMGWYRQAPGKQRELVVGISSDGSTHYADSAKGRFTISRDDAKNTVYLQMNSLKTEDTAVYYCYVPVKVAGLEYAYWGQGTQVTVSS
notes: also called DLLBII106H01
binding result [20]: binds | binding result [21]: binds
